Patent CN109929036A (TAIZHOU MAIBO TAIKE PHARMACEUTICAL CO LTD, dated 2019)

Columns and labels:
[1] = biological target: CHO细胞重组表达的人PD-1胞外段全长蛋白(第20-170位氨基酸) (human) (UniProt Q15116); assay: SPR, BIACORE3000, 5L12 coupled to the chip
[2] = biological target: T1, 化学合成的人PD-1第75-82位氨基酸(序列QTDKLAAF) (human); assay: SPR, BIACORE3000, 5L12 coupled to the chip
T1 peptide: QTDKLAAF

[3] = biological target: T2, 表面表达人PD-1的基因重组293T细胞上的人PD-1 (human, UniProt Q15116 25-288); assay: flow cytometry competition; displacement of FITC-PD-L1 from PD-1-expressing 293T cells
T2 construct: whole, on cells; also called 2H-3细胞表面PD-1; 表面表达PD-1的293T细胞
T2 sequence (Q15116 25-288): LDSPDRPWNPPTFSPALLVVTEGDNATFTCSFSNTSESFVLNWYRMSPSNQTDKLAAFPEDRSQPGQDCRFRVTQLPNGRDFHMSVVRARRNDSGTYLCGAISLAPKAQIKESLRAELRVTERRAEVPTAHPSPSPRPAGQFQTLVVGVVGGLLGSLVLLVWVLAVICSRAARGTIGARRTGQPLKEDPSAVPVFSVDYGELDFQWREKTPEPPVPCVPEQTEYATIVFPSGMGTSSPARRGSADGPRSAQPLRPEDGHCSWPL

B1: 全人源抗PD-1单克隆抗体5L12 (antibody, human IgG4 S228P, kappa, V domains shown)
VH: EVQLVESGGGLVQPGGSLRLSCAASGYTFTSYWMLWVRQAPGKGLEWVSYIYPSTGYTEYSENFKDRFTISRDNSKNTLYLQMNSLRAEDTAVYYCARGVRYYFDYWGQGTLVTVSS
VL: DIQMTQSPSSLSASVGDRVTITCKSSQSLLDSSTRKNYLAWYQQKPGKAPKLLIYWASTRESGVPSRFSGSGSGTDFTLTISSLQPEDFATYYCKQSYNLWTFGQGTKVEIKR
notes: also called FITC-5L12
With B1 the Kd [1] was 10 pM, the Kd [2] was about 10 pM and the IC50 [3] was about 0.03 µg/mL. For the same binder, the “IC50 ratio against Nivolumab” value [3] was 0.05 fold of the IC50 of Nivolumab and the “IC50 ratio against Pembrolizumab” value [3] was 0.5 fold of the IC50 of Pembrolizumab.
